Results: IntAct's records for PubMed 19490895

B1: Regulatory protein NPR1 (Arabidopsis thaliana (Mouse-ear cress)), P93002 (parent)
chain: MDTTIDGFADSYEISSTSFVATDNTDSSIVYLAAEQVLTGPDVSALQLLSNSFESVFDSPDDFYSDAKLVLSDGREVSFHRCVLSARSSFFKSALAAAKKEKDSNNTAAVKLELKEIAKDYEVGFDSVVTVLAYVYSSRVRPPPKGVSECADENCCHVACRPAVDFMLEVLYLAFIFKIPELITLYQRHLLDVVDKVVIEDTLVILKLANICGKACMKLLDRCKEIIVKSNVDMVSLEKSLPEELVKEIIDRRKELGLEVPKVKKHVSNVHKALDSDDIELVKLLLKEDHTNLDDACALHFAVAYCNVKTATDLLKLDLADVNHRNPRGYTVLHVAAMRKEPQLILSLLEKGASASEATLEGRTALMIAKQATMAVECNNIPEQCKHSLKGRLCVEILEQEDKREQIPRDVPPSFAVAADELKMTLLDLENRVALAQRLFPTEAQAAMEIAEMKGTCEFIVTSLEPDRLTGTKRTSPGVKIAPFRILEEHQSRLKALSKTVELGKRFFPRCSAVLDQIMNCEDLTQLACGEDDTAEKRLQKKQRYMEIQETLKKAFSEDNLELGNSSLTDSTSSTSKSTGGKRSNRKLSHRRR
partner: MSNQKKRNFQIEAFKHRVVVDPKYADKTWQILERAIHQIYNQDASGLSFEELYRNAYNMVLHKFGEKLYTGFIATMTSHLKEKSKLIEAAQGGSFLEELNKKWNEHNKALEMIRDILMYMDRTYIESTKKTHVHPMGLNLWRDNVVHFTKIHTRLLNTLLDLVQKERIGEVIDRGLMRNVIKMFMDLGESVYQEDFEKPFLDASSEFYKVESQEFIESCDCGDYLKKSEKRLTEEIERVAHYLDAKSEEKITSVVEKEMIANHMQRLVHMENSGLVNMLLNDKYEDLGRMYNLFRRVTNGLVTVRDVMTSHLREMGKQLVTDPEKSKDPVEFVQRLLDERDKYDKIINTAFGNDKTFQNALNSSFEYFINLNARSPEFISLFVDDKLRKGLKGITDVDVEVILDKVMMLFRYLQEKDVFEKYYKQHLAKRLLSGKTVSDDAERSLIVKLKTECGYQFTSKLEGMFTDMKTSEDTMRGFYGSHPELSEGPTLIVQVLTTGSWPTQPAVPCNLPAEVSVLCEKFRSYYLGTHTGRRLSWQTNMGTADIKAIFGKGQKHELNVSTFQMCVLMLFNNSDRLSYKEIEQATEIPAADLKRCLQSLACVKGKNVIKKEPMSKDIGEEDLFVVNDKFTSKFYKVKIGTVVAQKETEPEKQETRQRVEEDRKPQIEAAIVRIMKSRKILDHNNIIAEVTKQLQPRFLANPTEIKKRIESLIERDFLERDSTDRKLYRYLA

Variants of: B1
Conditions: with cul3a_arath CUL3A

Variant | effect of a mutation on the interaction
MDTTIDGFADAYEIASTSFVATDNTDSSIVYLAAEQVLTGPDVSALQLLSNSFESVFDSPDDFYSDAKLVLSDGREVSFHRCVLSARSSFFKSALAAAKKEKDSNNTAAVKLELKEIAKDYEVGFDSVVTVLAYVYSSRVRPPPKGVSECADENCCHVACRPAVDFMLEVLYLAFIFKIPELITLYQRHLLDVVDKVVIEDTLVILKLANICGKACMKLLDRCKEIIVKSNVDMVSLEKSLPEELVKEIIDRRKELGLEVPKVKKHVSNVHKALDSDDIELVKLLLKEDHTNLDDACALHFAVAYCNVKTATDLLKLDLADVNHRNPRGYTVLHVAAMRKEPQLILSLLEKGASASEATLEGRTALMIAKQATMAVECNNIPEQCKHSLKGRLCVEILEQEDKREQIPRDVPPSFAVAADELKMTLLDLENRVALAQRLFPTEAQAAMEIAEMKGTCEFIVTSLEPDRLTGTKRTSPGVKIAPFRILEEHQSRLKALSKTVELGKRFFPRCSAVLDQIMNCEDLTQLACGEDDTAEKRLQKKQRYMEIQETLKKAFSEDNLELGNSSLTDSTSSTSKSTGGKRSNRKLSHRRR [S11A;S15A] | decreasing interaction
